Experimental findings from PMC8765631 are described below.

Assay [1] has as its target RhsA_(ΔTMD) (RhsA lacking its N-terminal prePAAR motif and TMD, residues 74-1486) (Pseudomonas protegens Pf-5). Description: cryo-EM structure; purified RhsA_(ΔTMD) at 4 mg/ml in 20 mM Tris-HCl pH 8.0, 150 mM NaCl; single particle analysis with C2 symmetry, 3.3 Å.
The target in assay [2] is VgrG1 from Pseudomonas protegens (Pseudomonas protegens Pf-5). Description: cryo-EM structure.

The substance “RhsA_(ΔTMD) (RhsA lacking its N-terminal prePAAR motif and TMD, residues 74-1486) (domain or fragment)” showed a stoichiometry N in assay [1] of 2. In assay [2], “VgrG1 from Pseudomonas protegens (natural protein)” showed a stoichiometry N of 3.

One may read the stoichiometry N as the number of molecules, sites or subunits per partner or assembly.
